Reference: publication doi:10.1101/2022.08.15.503920
Several values for one entry are separate records, joined by “and”; a condition that tells them apart may be missing. Equal values may be shown once. Read-outs that look alike come from different tables or passages of the source. Values belong to the substance of their own block, whether it stands above or below them.

Key:
Assay in all cases: SEC-SAXS
[1] = target: L-lactate dehydrogenase from hog muscle (Sus scrofa) (UniProt P00339)
[2] = target: L-lactate dehydrogenase from hog muscle (Sus scrofa) (UniProt P00339); remark: listed apart in the source
[3] = target: enolase from baker's yeast (baker's yeast) (UniProt P00924)
[4] = target: enolase from baker's yeast (baker's yeast) (UniProt P00924); remark: listed apart in the source
P00924 = settings: other: SEC-SAXS

Chain of enolase from baker's yeast (P00924 whole entry): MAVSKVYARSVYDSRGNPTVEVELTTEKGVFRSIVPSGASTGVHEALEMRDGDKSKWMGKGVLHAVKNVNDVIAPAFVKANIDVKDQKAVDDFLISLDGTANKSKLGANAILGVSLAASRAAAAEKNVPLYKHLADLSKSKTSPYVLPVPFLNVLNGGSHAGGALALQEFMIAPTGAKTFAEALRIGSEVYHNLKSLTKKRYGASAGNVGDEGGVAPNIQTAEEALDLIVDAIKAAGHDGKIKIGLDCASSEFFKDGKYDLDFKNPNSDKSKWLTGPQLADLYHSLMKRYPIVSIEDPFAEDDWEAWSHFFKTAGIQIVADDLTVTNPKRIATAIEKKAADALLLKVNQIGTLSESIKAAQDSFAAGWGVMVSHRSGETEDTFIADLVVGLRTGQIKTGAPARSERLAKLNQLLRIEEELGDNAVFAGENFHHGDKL

stoichiometry N [1]: 4 and 2
stoichiometry N [2]: 4
Substance: L-lactate dehydrogenase from hog muscle (from UniProt P00339 1-332) (enzyme)

Substance: enolase from baker's yeast (from UniProt P00924 1-437) (enzyme)
stoichiometry N [3]: 2
stoichiometry N [4]: 2

Substance: enolase from baker's yeast
share of monomer and dimer in the main peak body at 100 MPa (P00924): ∼50% monomer/dimer mixture
